Measurements from article doi:10.1101/669069.
Where “and” joins values, the source holds several entries; their conditions need not be identical. Identical values can stand only once.

What was measured:
[1] = stopped-flow tryptophan fluorescence, urea-induced dissociation kinetics; conditions: other: stopped-flow tryptophan fluorescence
[2] = target: Methionine S-adenosyltransferase (MAT) from U. urealiticum (U. urealiticum); assay: native MS
[3] = target: Methionine S-adenosyltransferase (MAT) from U. urealiticum (U. urealiticum); assay: crystal structure
[4] = target: Methionine S-adenosyltransferase (MAT) from U. urealiticum (U. urealiticum); assay: crystal structure; remark: listed apart in the source
[5] = target: Methionine S-adenosyltransferase (MAT) from U. urealiticum (U. urealiticum); assay: SEC-MALS
[6] = target: Methionine S-adenosyltransferase (MAT) from U. urealiticum (U. urealiticum); assay: SEC-MALS; remark: listed apart in the source

Substance | kobs of urea-induced tetramer dissociation (3 M urea, with SAM) [1] | stoichiometry N [2] | stoichiometry N [3] | stoichiometry N [4] | stoichiometry N [5] | stoichiometry N [6]
Methionine S-adenosyltransferase (MAT) from U. urealiticum | kobs ∼ 0.1sec^-1 |  |  |  |  | 
Methionine S-adenosyltransferase (MAT) from U. urealiticum (enzyme) |  | 4 and 2 | 4 | 4 | 4 and 2 | 4
